According to patent publication US20160200799A1:

Assays:
Assay in all cases: ELISA on coated viral particles
[1] = molecular target: Influenza virus A/California/7/2009pdm (H1N1pdm) (Influenza A virus A/California/7/2009pdm (H1N1pdm))
[2] = molecular target: Influenza virus A/Brisbane/59/2007 (H1N1) (Influenza A virus A/Brisbane/59/2007 (H1N1))
[3] = molecular target: Influenza virus A/Panama/2007/1999 (H3N2) (Influenza A virus A/Panama/2007/1999 (H3N2))
[4] = molecular target: Influenza virus A/New Caledonia/20/1999 (H1N1) (Influenza A virus A/New Caledonia/20/1999 (H1N1))

| Binder | Binding activity (absorbance at 492 nm) [1] | Binding activity (absorbance at 492 nm) [2] | Binding activity (absorbance at 492 nm) [3] | Binding activity (absorbance at 492 nm) [4] |
| --- | --- | --- | --- | --- |
| Group 65 representative clone F083-366, Fab-cp3-type antibody (Fab, V domains shown) VH: QVQLVQSGSEVKKPGSSVKVSCKASRGIFSSYAISWVRQAPGQGLEWMGAVIPMFGTLKYAENFQGRITISADKSMSAAYMELSSLRSEDTAVYYCARNYYGSGTYFNDAFDIWGQGTMVTVSS VL: QSVLTQPPSGSGAPGQRVTISCTGGNSNIGAGYDVNGYQQLPGKAPKLLIYGNNNRPSGVPDRFSGSKSGTSASLAITGLQVEDEAHYYCQSYDNGLSGSVFGGGTQLTVLG | 1.13 | 2.84 | 0.18 | 2.93 |
| Group 44 representative clone F081-008, Fab-cp3-type antibody (Fab, V domains shown) VH: QVQLVQSGAEVKKPGSSVKVSCKASGGTFSSFSTYTISWVRQAPGQGLEWMGRSIPLLGITNYAQKFQGRVTITADISTSTAYMELSSLRSEDTAVYYCARYQSSDYYNSEYFQHWGQGTLVTVSS VL: EIVLTQSPGTLSLSLGERVTLSCRASQNVGTNYLAWYQQKPGQAPRLLIYGASSRATGVPDRFSGSGSGTDFTLTISRLAPEDFAVYYCQQYSSSPLTFGGGTKLEIK | 0.43 | 2.89 | 0.17 | 3.25 |
| Group 1 representative clone F080-227, Fab-cp3-type antibody (Fab, V domains shown) VH: QVQLQESGAEVKKPGSSVKVSCKASGGIFRRNAISWVRQAPGQGLEWMGGIIAIFGTANYAQKFQGRVTITADESTSTVYMELSSLRPEDTAVYYCARGPNYYENFFDYWGQGTLVTVSS VL: DIVMTQSPSSLSASVGDRLDLTCRASQDIANSLAWYKQRPGKAPELLVFGASRLEGGVPSRFSGTRAGTDFTLTISSLQPEDLGTYFCQQYFSFPRTFGQGTTLDLR | 2.95 | 3.1 | 0.14 | 3.15 |
| Group 2 representative clone F082-220, Fab-cp3-type antibody (Fab, V domains shown) VH: QVQLVQSGAEVKKPGSSVKVSCKASGGIFRSNAVSWVRQAPGQGLEWMGGIIAIFGTPKYAQKFQGRVTITADESTSTVYMELSGLRYEDTAVYYCARGPNYYESYFDYWGQGTLVTVSS VL: DIVMTQSPPSLSASVGDRVTITCRASQGISNYLAWYQQKPGKAPKLLIFGASTLHSGVSSRFSGSGSGPDFTLTISSLQPEDAATYYCQKYHSAPLTFGGGTKVEMK | 2.72 | 3.15 | 0.16 | 3.37 |
| Group 36 representative clone F082-243, Fab-cp3-type antibody (Fab, V domains shown) VH: QVQLQQSGAEVKKPGSSVKVSCKASGGIFRKNAISWVRQAPGQGLEWMGGIIAIFGTANYAQKFQGRVTITADDSTNTVYMELTSLRYEDTAVYYCARGPNYYENYFDFWGQGTLVTVSS VL: EIVLTQSPSSLSASLRDTVTITCRTSQAITNYLAWYQQRPGKAPKLLIYAASVLQSGVPSRFSGSGSGTDFTLTISSLQPEDFATYYCQKYDSAPYTFGQGTKLEIK | 0.8 | 1.05 | 0.13 | 0.96 |
| Group 47 representative clone F083-308, Fab-cp3-type antibody (Fab, V domains shown) VH: QVQLVQSGAEVKKPGSSVKVSCKASGGIFRSHAISWVRQAPGQGLEWMGGIIAIFGTTHYAQQFQGRVTITADESTSTVYMELSTLRSEDTAVYYCARGPNYFESYFDNWGQGTLVTVSS VL: EIVLTQSPATLSLSPGERATLSCRASQTISSYLAWYQQKPGQAPRLLIYGASNRATGIPARFSGSGSGTDFTLTINSLEPEDFAVYYCQQRSSWPPITFGQGTRLEIK | 1.21 | 1.82 | 0.16 | 1.79 |
| Group 48 representative clone F083-389, Fab-cp3-type antibody (Fab, V domains shown) VH: QVQLVQSGAEVKKPGSSVKVSCKASGDIFNKFAITWVRQAPGQGLEWMGGITALFATTSYAQKFQDRVTINWDESTTTAFMELSSLRFEDTAVYYCARGPNYYETYLDNWGQGTLVTVSS VL: EIVLTQSPTILSASVGDRVTITCRASQSISKWLAWYQQKPGKVPKLLIYMASTLESGVPSRFSGSGSGSEFTLTISSLQPGDFATYYCQQYNSYPRTFGQGTKVEINV | 2.49 | 2.83 | 0.14 | 2.72 |
| Group 3 representative clone F081-281, Fab-cp3-type antibody (Fab, V domains shown) VH: QVQLVQSGSEVKKPGSSVKVSCSFKASGGIISKYAITWVRQAPGQGLEWMGGIIAIFGSTNYAQKFQGRLTITSDESTSTAYMELSSLTSEDTAVYYCGRGPHYYESHLDYWGQGTLVTVSS VL: EIVLTQSPGTLSLSPGERATLSCRASQGMSSSFLAWYQQKPGQPPRLLISGASTRATGIPDRFSGSGSGTDFTLTINRLEPEDFAVYYCQQYGSSPRTFGQGTKVEIK | 2.87 | 2.98 | 0.18 | 2.86 |
| Group 35 representative clone F082-117, Fab-cp3-type antibody (Fab, V domains shown) VH: QVQLVQSGSEVKKPGSSVKVSCKSSGGILRRSAISWVRQAPGQGLEWMGGILAIFGTTKYAQKFQGRITITADESTNTVHMELSSLRPDDTAVYYCAGGPHYYVSYFDSWGQGTLVTVSS VL: DIQMTQSPATLSLSPGERATLSCRASQSVRSYLAWYQQKPGQAPRLLIYDASNRATGIPARFSGSGSGTEFTLTISRLEPEDFAVYYCQQRSNWLFTFGPGTKVDFK | 3.11 | 3.26 | 0.15 | 3.35 |
| Group 39 representative clone F082-237, Fab-cp3-type antibody (Fab, V domains shown) VH: QVQLVQSGAEVKKPGSSVKVSCKASGGIFNKYGISWVRQAPGQGLEWMGGILAIFGTTNYAQKFQGRVTISADESSTTVYMELSSLTSEDTAVYYCARGNTYYSSYFDQWGQGTLVTVSS VL: QSVLTQPPSVSVAPGQTATITCGGDKIGTGPVHWYQQMPGRAPVLLIYASTHRPSRIPERFSGSKSDNTATLSISGVGVGDEADYYCQMWDSSSVHPIVFGGGTKLTVLS | 2.62 | 1.95 | 0.13 | 1.94 |
| Group 54 representative clone F083-354, Fab-cp3-type antibody (Fab, V domains shown) VH: QVQLVQSGSEVKKPGSSVKVSCKASGGIFNSYGISWVRQAPGQGLEWMGGILAIFGTTNYAQKFQGRVTITADDSSKTVYMELSSLTSEDTAVYYCARGSTYYSSYFDQWGQGTLVTVSS VL: DIQMTQSPSSLSASVGDRVTITCRASQGIRNSLAWYQQKPGQVPKLLIYSATTLRSGVPYRFSGSGSGTDFTLTISGLQPEDVGTYFCHRYDSAPLTFGGGTRVALK | 2.54 | 3.01 | 0.16 | 3.05 |
| Group 37 representative clone F083-311, Fab-cp3-type antibody (Fab, V domains shown) VH: QVQLVQSGSEVKKPGSSVKVSCKASGGIFRTNAISYVRQAPGQGLEWMGGITAIFGTPNYAQKFQGRVTIIADESTSTVYMELGSLTSEDTAVYYCATSGTYYVSYFDSWGQGTLVTVSS VL: DIVMTQSPGTLTLSPGERATLSCRASQSLYSSHLAWYQQKPGQPPRLLIYGASTRAPGTPDRFSGSGSGTDFTLTITALDPEDSAVYYCQQYGSSPITFGQGTRLEIK | 1.82 | 2.64 | 0.15 | 2.59 |
| Group 52 representative clone F083-328, Fab-cp3-type antibody (Fab, V domains shown) VH: QVQLVQSGAEVKKPGSSVKLSCKASGGTLRSYALSWVRQAPGEGLEWMGGISAIFNTATYAQNVQGRVTITADESTNTFYLEVSSLRSDDTAVYYCATSGTYYVSFFDYWGQGTLVTVSS VL: DIVLTQSPSTLSASVGDRVTLTCRASQSIGSLMAWYQQQPGKPPKLLIYRASNLETGVPSRFTGSGSGTEFALTISSLQPDDVGTYYCQHFKTFSRTFGQGTKVEIK | 2.02 | 2.43 | 0.22 | 2.66 |
